We go through one substance from patent US20230322953A1.

The target of assay [1] is human CD3 (TCR/CD3 complex) on human T cells (human) (UniProt P07766). As to the kind of experiment: flow cytometry (FACS) on human T cells, Experiment 2, isotype control. On the technique in general: Flow cytometry measures light scatter and fluorescence of single cells or particles in a stream.
The target is the same in assay [2]. As to the kind of experiment: flow cytometry (FACS) on human T cells, Experiment 3, isotype control.
The target of assay [3] is cynomolgus monkey CD3 (TCR/CD3 complex) on cynomolgus monkey T cells (cynomolgus monkey). In words: flow cytometry (FACS) on cynomolgus monkey T cells, isotype control.
cynomolgus monkey CD3 (TCR/CD3 complex) on cynomolgus monkey T cells (cynomolgus monkey), sequence (Q95LI5 22-198, one chain of several): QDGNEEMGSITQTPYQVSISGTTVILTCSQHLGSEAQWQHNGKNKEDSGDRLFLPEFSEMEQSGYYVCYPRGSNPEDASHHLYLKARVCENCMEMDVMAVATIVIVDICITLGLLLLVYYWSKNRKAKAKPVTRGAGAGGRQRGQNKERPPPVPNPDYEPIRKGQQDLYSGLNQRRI

human CD3 (TCR/CD3 complex) on human T cells (human), sequence (P07766 23-207, one chain of several): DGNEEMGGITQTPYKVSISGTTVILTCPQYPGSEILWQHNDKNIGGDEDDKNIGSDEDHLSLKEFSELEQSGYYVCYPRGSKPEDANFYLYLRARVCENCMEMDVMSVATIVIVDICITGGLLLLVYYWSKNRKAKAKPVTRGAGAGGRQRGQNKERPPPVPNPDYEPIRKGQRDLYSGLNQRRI

hIgG1 iso (CrownBio, #C0001) (antibody): the Maximum MFI in assay [1] is 12 MFI; in assay [2], 3000 MFI; in assay [3], 794 MFI.
